Measurements: paper PMC11773018

Tests used:
[1] = biological target: human complement factor H (human) (UniProt P08603); experiment: SPR; human FH conjugated to a CM5 chip; untreated untagged CspZ flowed in PBS at 10 μl/min, 25 °C; Biacore T200; 1:1 Langmuir model
[2] = biological target: human complement factor H (human) (UniProt P08603); experiment: SPR; human FH conjugated to a CM5 chip; untagged CspZ treated with 100 μM EDTA and dialysed against PBS, flowed in EDTA-treated PBS (100 μM) at 10 μl/min, 25 °C; 1:1 Langmuir model
human factor H (human) [3] = biological target: human factor H (human) (UniProt P08603); experiment: SPR; human FH conjugated to a CM5 chip; untreated (PBS) untagged CspZ at one concentration (2 uM in methods and legend, 1 uM in the table's footnote) flowed in PBS at 10 ul/min, 25 C, Biacore T200, 1:1 Langmuir model
human factor H (human) [4] = biological target: human factor H (human) (UniProt P08603); experiment: SPR; human FH conjugated to a CM5 chip; untreated (PBS) untagged CspZ at one concentration (2 uM in methods and legend, 1 uM in the table's footnote) flowed in PBS at 30 ul/min, 25 C, Biacore T200, 1:1 Langmuir model
human factor H (human) [5] = biological target: human factor H (human) (UniProt P08603); experiment: SPR; human FH conjugated to a CM5 chip; untreated (PBS) untagged CspZ at one concentration (2 uM in methods and legend, 1 uM in the table's footnote) flowed in PBS at 100 ul/min, 25 C, Biacore T200, 1:1 Langmuir model
human factor H (human) [6] = biological target: human factor H (human) (UniProt P08603); experiment: SPR; human FH conjugated to a CM5 chip; untagged CspZ treated with 100 uM EDTA and dialysed against PBS, one concentration (2 uM in methods and legend, 1 uM in the table's footnote), flow rate 10 ul/min, 25 C, Biacore T200, 1:1 Langmuir model
human factor H (human) [7] = biological target: human factor H (human) (UniProt P08603); experiment: SPR; human FH conjugated to a CM5 chip; untagged CspZ treated with 100 uM EDTA and dialysed against PBS, one concentration (2 uM in methods and legend, 1 uM in the table's footnote), flow rate 30 ul/min, 25 C, Biacore T200, 1:1 Langmuir model
human factor H (human) [8] = biological target: human factor H (human) (UniProt P08603); experiment: SPR; human FH conjugated to a CM5 chip; untagged CspZ treated with 100 uM EDTA and dialysed against PBS, one concentration (2 uM in methods and legend, 1 uM in the table's footnote), flow rate 100 ul/min, 25 C, Biacore T200, 1:1 Langmuir model
[9] = biological target: human complement factor H (human) (UniProt P08603); experiment: SPR; human FH conjugated to a CM5 chip; EDTA-treated, PBS-dialysed untagged CspZ then incubated with 100 μM zinc, flowed in zinc-treated PBS (100 μM) at 10 μl/min, 25 °C; 1:1 Langmuir model
human factor H (human) [10] = biological target: human factor H (human) (UniProt P08603); experiment: SPR; human FH conjugated to a CM5 chip; EDTA-treated, PBS-dialysed untagged CspZB31 then treated with 100 uM zinc (EDTA-Zn), one concentration (2 uM in methods and legend, 1 uM in the table's footnote), flow rate 10 ul/min, 25 C, Biacore T200, 1:1 Langmuir model
human factor H (human) [11] = biological target: human factor H (human) (UniProt P08603); experiment: SPR; human FH conjugated to a CM5 chip; EDTA-treated, PBS-dialysed untagged CspZB31 then treated with 100 uM zinc (EDTA-Zn), one concentration (2 uM in methods and legend, 1 uM in the table's footnote), flow rate 30 ul/min, 25 C, Biacore T200, 1:1 Langmuir model
human factor H (human) [12] = biological target: human factor H (human) (UniProt P08603); experiment: SPR; human FH conjugated to a CM5 chip; EDTA-treated, PBS-dialysed untagged CspZB31 then treated with 100 uM zinc (EDTA-Zn), one concentration (2 uM in methods and legend, 1 uM in the table's footnote), flow rate 100 ul/min, 25 C, Biacore T200, 1:1 Langmuir model

| Substance | Kd [1] [nM] | koff [1] [s⁻¹] | kon [1] [M⁻¹ s⁻¹] | Kd [2] [nM] | koff [2] [s⁻¹] | kon [2] [M⁻¹ s⁻¹] | Kd (human factor H (human) [3]) [nM] | koff (human factor H (human) [3]) [s⁻¹] | kon (human factor H (human) [3]) [M⁻¹ s⁻¹] | Kd (human factor H (human) [4]) [nM] | koff (human factor H (human) [4]) [s⁻¹] | kon (human factor H (human) [4]) [M⁻¹ s⁻¹] | Kd (human factor H (human) [5]) [nM] | koff (human factor H (human) [5]) [s⁻¹] | kon (human factor H (human) [5]) [M⁻¹ s⁻¹] | Kd (human factor H (human) [6]) [nM] | koff (human factor H (human) [6]) [s⁻¹] | kon (human factor H (human) [6]) [M⁻¹ s⁻¹] | Kd (human factor H (human) [7]) [nM] | koff (human factor H (human) [7]) [s⁻¹] | further results |
| --- | --- | --- | --- | --- | --- | --- | --- | --- | --- | --- | --- | --- | --- | --- | --- | --- | --- | --- | --- | --- | --- |
| CspZ from Borrelia afzelii VS461, untagged (natural protein) | 370 | 0.0034 | 9420 | 470 | 0.0045 | 10600 | 370 | 0.004 | 10800 | 380 | 0.004 | 10800 | 340 | 0.003 | 10500 | 480 | 0.004 | 10700 | 430 | 0.003 | kon (human factor H (human) [7]): 9160 M⁻¹ s⁻¹; Kd (human factor H (human) [8]): 110 nM; koff (human factor H (human) [8]): 0.004 s⁻¹; kon (human factor H (human) [8]): 11100 M⁻¹ s⁻¹ |
| CspZ from Borrelia burgdorferi B31, untagged (natural protein) | 340 | 0.021 | 66600 | 3050 | 0.012 | 4370 | 230 | 0.016 | 68800 | 270 | 0.017 | 63200 | 250 | 0.017 | 69200 | 3370 | 0.012 | 4560 | 3730 | 0.021 | Kd [9]: 680 nM; koff [9]: 0.035 s⁻¹; kon [9]: 51200 M⁻¹ s⁻¹; kon (human factor H (human) [7]): 5790 M⁻¹ s⁻¹; Kd (human factor H (human) [8]): 3670 nM; koff (human factor H (human) [8]): 0.017 s⁻¹; kon (human factor H (human) [8]): 4830 M⁻¹ s⁻¹; Kd (human factor H (human) [10]): 620 nM; koff (human factor H (human) [10]): 0.037 s⁻¹; kon (human factor H (human) [10]): 60900 M⁻¹ s⁻¹; Kd (human factor H (human) [11]): 570 nM; koff (human factor H (human) [11]): 0.034 s⁻¹; kon (human factor H (human) [11]): 61700 M⁻¹ s⁻¹; Kd (human factor H (human) [12]): 660 nM; koff (human factor H (human) [12]): 0.044 s⁻¹; kon (human factor H (human) [12]): 66600 M⁻¹ s⁻¹ |
| CspZ from Borrelia burgdorferi B408, untagged (natural protein) | 540 | 0.0079 | 14100 | 490 | 0.0071 | 13900 | 550 | 0.008 | 16500 | 530 | 0.007 | 13600 | 540 | 0.006 | 13200 | 480 | 0.007 | 15700 | 480 | 0.006 | kon (human factor H (human) [7]): 13600 M⁻¹ s⁻¹; Kd (human factor H (human) [8]): 500 nM; koff (human factor H (human) [8]): 0.008 s⁻¹; kon (human factor H (human) [8]): 16700 M⁻¹ s⁻¹ |
